Results published in patent US20250197467A1 (BRIGHT PEAK THERAPEUTICS, published 2025).
Positions count from the first letter of the chain named. “And” between values parts separate entries of the source, which are not always exact repeats. Identical values can stand only once.

T1: IL-18 receptor (IL-18Rαβ) on cells (UniProt Q13478 19-541; O95256 20-599, limits assumed)
T1 sequence (looked up) 1: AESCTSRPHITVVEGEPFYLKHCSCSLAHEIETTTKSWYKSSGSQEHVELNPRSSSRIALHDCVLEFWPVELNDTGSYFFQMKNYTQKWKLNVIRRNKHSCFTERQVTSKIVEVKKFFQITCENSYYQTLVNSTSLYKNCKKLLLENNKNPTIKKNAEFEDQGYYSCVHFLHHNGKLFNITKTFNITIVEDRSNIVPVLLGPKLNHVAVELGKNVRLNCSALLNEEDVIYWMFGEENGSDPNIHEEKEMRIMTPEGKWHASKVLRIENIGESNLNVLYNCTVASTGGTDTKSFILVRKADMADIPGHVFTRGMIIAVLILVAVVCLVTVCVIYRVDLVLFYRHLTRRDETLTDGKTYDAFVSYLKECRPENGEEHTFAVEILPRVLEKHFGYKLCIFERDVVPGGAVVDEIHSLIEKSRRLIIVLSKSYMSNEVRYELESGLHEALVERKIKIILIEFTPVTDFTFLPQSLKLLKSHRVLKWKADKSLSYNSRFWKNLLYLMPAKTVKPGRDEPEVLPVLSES
T1 sequence (looked up) 2: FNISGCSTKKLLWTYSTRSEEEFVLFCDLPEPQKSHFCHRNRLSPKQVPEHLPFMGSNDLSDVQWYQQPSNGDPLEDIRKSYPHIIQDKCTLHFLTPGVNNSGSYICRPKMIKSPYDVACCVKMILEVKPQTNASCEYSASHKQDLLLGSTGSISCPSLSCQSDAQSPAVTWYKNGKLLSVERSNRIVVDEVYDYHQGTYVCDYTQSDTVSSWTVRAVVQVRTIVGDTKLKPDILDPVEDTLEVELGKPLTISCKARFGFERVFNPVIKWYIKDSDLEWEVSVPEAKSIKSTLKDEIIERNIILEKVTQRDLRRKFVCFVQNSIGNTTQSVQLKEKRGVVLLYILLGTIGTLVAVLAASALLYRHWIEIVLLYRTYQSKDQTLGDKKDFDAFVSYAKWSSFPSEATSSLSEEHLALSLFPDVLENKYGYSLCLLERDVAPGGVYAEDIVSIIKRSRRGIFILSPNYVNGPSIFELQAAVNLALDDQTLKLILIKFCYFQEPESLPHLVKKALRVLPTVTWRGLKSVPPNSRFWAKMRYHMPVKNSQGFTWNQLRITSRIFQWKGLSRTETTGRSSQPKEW

B1: C140 (ligand)
chain: GGGGYFGKLKSKLSIIRNLNDQVLFIDQGNRPLFEDMTDSDARDNAPRTIFIISMYADSQPRGMAVAISVKCEKISTLSAENKIISFKEMNPPDNIKDTKSDIIFFQRSVPGHDNKMQFESSSYEGYFLAAEKERDLFKLILKKEDELGDRSIMFTVQNED
B2: C141 (ligand)
chain: GYFGKLKSKLSIIRNLNDQVLFIDQGNRPLFEDMTDSDARDNAPRTIFIISMYADSQPRGMAVAISVKCEKISTLSAENKIISFKEMNPPDNIKDTKSDIIFFQRSVPGHDNKMQFESSSYEGYFLAAEKERDLFKLILKKEDELGDRSIMFTVQNED
B3: C192 (ligand)
chain: B2 chain with M52G
B4: SEQ ID NO 34 (ligand)
chain: YFGKLKSKLSVIRNLNDQVLFIDQGNRPLFEDMTDSDCRDNAPRTIFIISMYADAQPRGMAVTISVKCEKISTLSCENKIISFKEMNPPDNIKDTKSDIIFFQRSVPGHDNKMQFESSSYEGYFLACEKERDLFKLILKKEDELGDRSIMFTVQNED
B5: SEQ ID NO 56 (ligand)
chain: B4 chain with C38S, A55S, C76S, C127S
B6: C174 (ligand)
chain: B4 chain with K8L, V11I, C38A, A55S, T63A, C76A, C127A
B7: SEQ ID NO 59 (ligand)
chain: B4 chain with C38A, A55S
B8: SEQ ID NO 42 (ligand)
chain: B4 chain with T63A
B9: C178 (ligand)
chain: B4 chain with V11I, C38A, A55S, T63A, C76A, Q103R, C127A
B10: C182 (ligand)
chain: B4 chain with V11I, C38A, A55S, T63A, C76A, C127A, V153Y
B11: SEQ ID NO 50 (ligand)
chain: B4 chain with A55S, T63A
B12: C181 (ligand)
chain: B4 chain with V11I, C38A, A55S, T63A, C76A, C127A, V153E
B13: C142 (ligand)
chain: B4 chain with Y1M, V11I, C38A, A55S, T63A, C76A, C127A
B14: C176 (ligand)
chain: B4 chain with V11I, C38A, I49M, A55S, T63A, C76A, C127A
B15: SEQ ID NO 60 (ligand)
chain: B4 chain with C38Q, A55S
B16: C184 (ligand)
chain: B4 chain with K6R, V11I, C38A, A55S, T63A, C76A, C127A
B17: SEQ ID NO 62 (ligand)
chain: B4 chain with C38A, A55S, C127A
B18: SEQ ID NO 57 (ligand)
chain: B4 chain with C38S, A55S
B19: C177 (ligand)
chain: B4 chain with V11I, C38A, I49R, A55S, T63A, C76A, C127A
B20: SEQ ID NO 54 (ligand)
chain: B4 chain with C38S, A55S, C68S, K70C, C76S, C127S
B21: C183 (ligand)
chain: B4 chain with V11I, C38A, M51G, A55S, T63A, C76A, C127A
B22: C179 (ligand)
chain: B4 chain with K8E, V11I, C38A, A55S, T63A, C76A, Q103R, C127A
B23: SEQ ID NO 49 (ligand)
chain: B4 chain with C38S, C68S, K70C, C76S, C127S
B24: SEQ ID NO 46 (ligand)
chain: B4 chain with M51G
B25: SEQ ID NO 4 (ligand)
chain: B4 chain with C38A, A55S, C68A, M86C
B26: SEQ ID NO 45 (ligand)
chain: B4 chain with D54A
B27: SEQ ID NO 9 (ligand)
chain: B4 chain with C38A, A55S, C68A, D98C
B28: SEQ ID NO 48 (ligand)
chain: B4 chain with K6E, C38S, A53K, A55S, C68S, K70C, C76S, C127S
B29: SEQ ID NO 43 (ligand)
chain: B4 chain with Y1G
B30: SEQ ID NO 6 (ligand)
chain: B4 chain with V11I, C38A, A55S, T63A, C68A, C76A, D98C, C127A
B31: SEQ ID NO 35 (ligand)
chain: B4 chain with Y1G, F2A, M51G, D54A, T63A
B32: SEQ ID NO 47 (ligand)
chain: B4 chain with K6E, C38S, A53K, A55S, C68S, C76S, C127S
B33: SEQ ID NO 5 (ligand)
chain: B4 chain with V11I, C38A, A55S, T63A, C68A, C76A, M86C, C127A
B34: SEQ ID NO 44 (ligand)
chain: B4 chain with F2A
B35: SEQ ID NO 55 (ligand)
chain: B4 chain with K6E, C38S, A55S, T63A, C68S, K70C, C76S, C127S

target: T1, IL-18 receptor (IL-18Rαβ) on cells; test: cell-based or functional assay

HEK-Blue IL-18R reporter EC50 | Binder
2.5 pM | B1
1.68 pM | B2
14 pM | B3
272 pM | B4
3.73 pM | B5
0.29 pM | B6
0.268 pM | B7
0.79 pM | B8
0.26 pM | B9
0.08 pM | B10
1.77 pM | B11
0.1 pM | B12
0.02 pM | B13
0.07 pM | B14
0.203 pM | B15
0.04 pM | B16
0.17 pM | B17
0.86 pM and 0.53 pM | B18
0.04 pM | B19
9.12 pM | B20
0.1 pM | B21
0.4 pM | B22

target: T1, IL-18 receptor (IL-18Rαβ) on cells; test: cell-based or functional assay; remark: another data set of the same source

EC50 (IFNγ stimulation, NK92) | Binder
0.824 nM | B4
58.5 nM | B23
7.4 nM | B24
0.015 nM | B7
0.022 nM | B25
0.144 nM | B8
30 nM | B26
0.0268 nM | B11
0.069 nM | B27
0.488 nM | B28
0.006 nM | B15
6.12 nM | B29
0.026 nM | B17
1.37 nM | B30
0.045 nM | B18
> 55 nM | B31
0.115 nM | B32
0.962 nM | B20
0.075 nM | B33
> 1000 nM | B34
17.2 nM | B35
